Results taken from patent publication USRE47150 (Bayer, dated 2018).

Key:
[1] = target: T1, mouse tissue factor pathway inhibitor (TFPI) (mouse, UniProt O54819 29-289, limits assumed); test: competitive ELISA
T1 construct: bought; also called mTFPI; murine TFPI
T1 sequence (looked up): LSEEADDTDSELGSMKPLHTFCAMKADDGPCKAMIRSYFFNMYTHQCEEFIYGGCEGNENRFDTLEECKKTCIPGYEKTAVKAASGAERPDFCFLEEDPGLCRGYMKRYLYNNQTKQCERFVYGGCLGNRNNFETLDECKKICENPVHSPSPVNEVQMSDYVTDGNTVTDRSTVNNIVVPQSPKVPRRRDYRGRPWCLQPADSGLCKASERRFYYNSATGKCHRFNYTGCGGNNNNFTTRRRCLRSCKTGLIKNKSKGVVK

[2] = target: T2, human tissue factor pathway inhibitor (TFPI) (human, UniProt P10646 29-304, limits assumed); test: competitive ELISA
T2 construct: bought; also called hTFPI; human TFPI
T2 sequence (looked up): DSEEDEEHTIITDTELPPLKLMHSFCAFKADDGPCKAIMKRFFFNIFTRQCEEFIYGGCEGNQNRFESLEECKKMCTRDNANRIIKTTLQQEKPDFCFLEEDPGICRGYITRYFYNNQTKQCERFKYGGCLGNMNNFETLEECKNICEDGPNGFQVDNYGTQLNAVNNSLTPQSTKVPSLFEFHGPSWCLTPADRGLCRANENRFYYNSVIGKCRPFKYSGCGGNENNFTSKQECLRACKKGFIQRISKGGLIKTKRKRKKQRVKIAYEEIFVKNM

B1: 4B7 HC N32D+D62Q+H107M+Y112D/LC S32R+D33F+N35I (Fab, V domains shown)
VH: QVQLQQSGPGLVKPSQTLSLTCAISGDSVSSDSAAWSWIRQSPGRGLEWLGIIYKRSKWYNQYAVSVKSRITINPDTSKNQFSLQLNSVTPEDTAVYYCARWHSDKMWGFDDWGQGTLVTVSS
VL: DIVMTQSPLSLPVTPGEPASISCRSSQSLVFRFGITYLNWYLQKPGQSPQLLIYKGSNRASGVPDRFSGSGSGTDFTLKISRVEAEDVGVYYCQQYDSYPLTFGQGTKVEIKR
Binder B1 has a variant/HC_D62R [1] of 46.6 ratio and a variant/HC_D62R [2] of 24.7 ratio.

B2: 4B7 HC N32D+D62Q+Y112D/LC F31I+D33F+N35I+D97T (Fab, V domains shown)
VH: QVQLQQSGPGLVKPSQTLSLTCAISGDSVSSDSAAWSWIRQSPGRGLEWLGIIYKRSKWYNQYAVSVKSRITINPDTSKNQFSLQLNSVTPEDTAVYYCARWHSDKHWGFDDWGQGTLVTVSS
VL: DIVMTQSPLSLPVTPGEPASISCRSSQSLVISFGITYLNWYLQKPGQSPQLLIYKGSNRASGVPDRFSGSGSGTDFTLKISRVEAEDVGVYYCQQYTSYPLTFGQGTKVEIKR
In the case of B2, the variant/HC_D62R [1] is reported as 4.6 ratio and the variant/HC_D62R [2] is reported as 14.4 ratio.

B3: 4B7 HC N32D+D62Q+Y112D/LC F31M+S32R+D33F+N35I (Fab, V domains shown)
VH: QVQLQQSGPGLVKPSQTLSLTCAISGDSVSSDSAAWSWIRQSPGRGLEWLGIIYKRSKWYNQYAVSVKSRITINPDTSKNQFSLQLNSVTPEDTAVYYCARWHSDKHWGFDDWGQGTLVTVSS
VL: DIVMTQSPLSLPVTPGEPASISCRSSQSLVMRFGITYLNWYLQKPGQSPQLLIYKGSNRASGVPDRFSGSGSGTDFTLKISRVEAEDVGVYYCQQYDSYPLTFGQGTKVEIKR
B3 was tested, and the variant/HC_D62R [1] was 15.8 ratio and the variant/HC_D62R [2] was 20.8 ratio.

B4: 4B7 HC N32D+D62Q+H107M+Y112D/LC S32R+N35T (Fab, V domains shown)
VH: QVQLQQSGPGLVKPSQTLSLTCAISGDSVSSDSAAWSWIRQSPGRGLEWLGIIYKRSKWYNQYAVSVKSRITINPDTSKNQFSLQLNSVTPEDTAVYYCARWHSDKMWGFDDWGQGTLVTVSS
VL: DIVMTQSPLSLPVTPGEPASISCRSSQSLVFRDGTTYLNWYLQKPGQSPQLLIYKGSNRASGVPDRFSGSGSGTDFTLKISRVEAEDVGVYYCQQYDSYPLTFGQGTKVEIKR
B4 gave a variant/HC_D62R [1] of 27.1 ratio and a variant/HC_D62R [2] of 25 ratio.

B5: 4B7 HC N32D+D62R+H103D+H107M+Y112D/LC S32R (Fab, V domains shown)
VH: QVQLQQSGPGLVKPSQTLSLTCAISGDSVSSDSAAWSWIRQSPGRGLEWLGIIYKRSKWYNRYAVSVKSRITINPDTSKNQFSLQLNSVTPEDTAVYYCARWDSDKMWGFDDWGQGTLVTVSS
VL: DIVMTQSPLSLPVTPGEPASISCRSSQSLVFRDGNTYLNWYLQKPGQSPQLLIYKGSNRASGVPDRFSGSGSGTDFTLKISRVEAEDVGVYYCQQYDSYPLTFGQGTKVEIKR
Binder B5 has a variant/HC_D62R [1] of 16 ratio and a variant/HC_D62R [2] of 17.7 ratio.

B6: 4B7 HC N32D+D62R+H103D/LC F31I+D33R (Fab, V domains shown)
VH: QVQLQQSGPGLVKPSQTLSLTCAISGDSVSSDSAAWSWIRQSPGRGLEWLGIIYKRSKWYNRYAVSVKSRITINPDTSKNQFSLQLNSVTPEDTAVYYCARWDSDKHWGFDYWGQGTLVTVSS
VL: DIVMTQSPLSLPVTPGEPASISCRSSQSLVISRGNTYLNWYLQKPGQSPQLLIYKGSNRASGVPDRFSGSGSGTDFTLKISRVEAEDVGVYYCQQYDSYPLTFGQGTKVEIKR
B6 was tested, and the variant/HC_D62R [1] was 14.6 ratio and the variant/HC_D62R [2] was 13.6 ratio.

B7: 4B7 HC N32D+D62Q+Y112D/LC V30L+F31I+D33F+N35I (Fab, V domains shown)
VH: QVQLQQSGPGLVKPSQTLSLTCAISGDSVSSDSAAWSWIRQSPGRGLEWLGIIYKRSKWYNQYAVSVKSRITINPDTSKNQFSLQLNSVTPEDTAVYYCARWHSDKHWGFDDWGQGTLVTVSS
VL: DIVMTQSPLSLPVTPGEPASISCRSSQSLLISFGITYLNWYLQKPGQSPQLLIYKGSNRASGVPDRFSGSGSGTDFTLKISRVEAEDVGVYYCQQYDSYPLTFGQGTKVEIKR
Binder B7 has a variant/HC_D62R [1] of 24.6 ratio and a variant/HC_D62R [2] of 22.9 ratio.

B8: 4B7 HC N32D+D62R+H103D+H107M+Y112D/LC S32R+N35T (Fab, V domains shown)
VH: QVQLQQSGPGLVKPSQTLSLTCAISGDSVSSDSAAWSWIRQSPGRGLEWLGIIYKRSKWYNRYAVSVKSRITINPDTSKNQFSLQLNSVTPEDTAVYYCARWDSDKMWGFDDWGQGTLVTVSS
VL: DIVMTQSPLSLPVTPGEPASISCRSSQSLVFRDGTTYLNWYLQKPGQSPQLLIYKGSNRASGVPDRFSGSGSGTDFTLKISRVEAEDVGVYYCQQYDSYPLTFGQGTKVEIKR
Work on B8 yielded a variant/HC_D62R [1] of 18.4 ratio and a variant/HC_D62R [2] of 14 ratio.

B9: 4B7 HC N32D+D62R+H107M+Y112D/LC D33R (Fab, V domains shown)
VH: QVQLQQSGPGLVKPSQTLSLTCAISGDSVSSDSAAWSWIRQSPGRGLEWLGIIYKRSKWYNRYAVSVKSRITINPDTSKNQFSLQLNSVTPEDTAVYYCARWHSDKMWGFDDWGQGTLVTVSS
VL: DIVMTQSPLSLPVTPGEPASISCRSSQSLVFSRGNTYLNWYLQKPGQSPQLLIYKGSNRASGVPDRFSGSGSGTDFTLKISRVEAEDVGVYYCQQYDSYPLTFGQGTKVEIKR
Binder B9 has a variant/HC_D62R [1] of 20.3 ratio and a variant/HC_D62R [2] of 25.3 ratio.

B10: 4B7 HC N32D+D62Q+Y112D/LC F31I+D33F+N35I+T36N (Fab, V domains shown)
VH: QVQLQQSGPGLVKPSQTLSLTCAISGDSVSSDSAAWSWIRQSPGRGLEWLGIIYKRSKWYNQYAVSVKSRITINPDTSKNQFSLQLNSVTPEDTAVYYCARWHSDKHWGFDDWGQGTLVTVSS
VL: DIVMTQSPLSLPVTPGEPASISCRSSQSLVISFGINYLNWYLQKPGQSPQLLIYKGSNRASGVPDRFSGSGSGTDFTLKISRVEAEDVGVYYCQQYDSYPLTFGQGTKVEIKR
With B10 the variant/HC_D62R [1] was 46.3 ratio and the variant/HC_D62R [2] was 27.3 ratio.

B11: 4B7 HC N32D+D62R+H107M+Y112D/LC D33F+N35T+Y37F (Fab, V domains shown)
VH: QVQLQQSGPGLVKPSQTLSLTCAISGDSVSSDSAAWSWIRQSPGRGLEWLGIIYKRSKWYNRYAVSVKSRITINPDTSKNQFSLQLNSVTPEDTAVYYCARWHSDKMWGFDDWGQGTLVTVSS
VL: DIVMTQSPLSLPVTPGEPASISCRSSQSLVFSFGTTFLNWYLQKPGQSPQLLIYKGSNRASGVPDRFSGSGSGTDFTLKISRVEAEDVGVYYCQQYDSYPLTFGQGTKVEIKR
In the case of B11, the variant/HC_D62R [1] is reported as 57.5 ratio and the variant/HC_D62R [2] is reported as 35.7 ratio.

B12: 4B7 HC N32D+D62Q+Y112D/LC F31I+D33F+N35I+S98H (Fab, V domains shown)
VH: QVQLQQSGPGLVKPSQTLSLTCAISGDSVSSDSAAWSWIRQSPGRGLEWLGIIYKRSKWYNQYAVSVKSRITINPDTSKNQFSLQLNSVTPEDTAVYYCARWHSDKHWGFDDWGQGTLVTVSS
VL: DIVMTQSPLSLPVTPGEPASISCRSSQSLVISFGITYLNWYLQKPGQSPQLLIYKGSNRASGVPDRFSGSGSGTDFTLKISRVEAEDVGVYYCQQYDHYPLTFGQGTKVEIKR
With B12 the binding result [1] was “no binding” and the variant/HC_D62R [2] was 13.5 ratio.

B13: 4B7 HC N32D+D62Q+Y112D/LC S32R+D33R+N35I (Fab, V domains shown)
VH: QVQLQQSGPGLVKPSQTLSLTCAISGDSVSSDSAAWSWIRQSPGRGLEWLGIIYKRSKWYNQYAVSVKSRITINPDTSKNQFSLQLNSVTPEDTAVYYCARWHSDKHWGFDDWGQGTLVTVSS
VL: DIVMTQSPLSLPVTPGEPASISCRSSQSLVFRRGITYLNWYLQKPGQSPQLLIYKGSNRASGVPDRFSGSGSGTDFTLKISRVEAEDVGVYYCQQYDSYPLTFGQGTKVEIKR
For B13, the variant/HC_D62R [1] was 23.5 ratio and the variant/HC_D62R [2] was 21.4 ratio.

B14: 4B7 HC N32D+D62Q+Y112D/LC S32R+D33F+N35I+D97T (Fab, V domains shown)
VH: QVQLQQSGPGLVKPSQTLSLTCAISGDSVSSDSAAWSWIRQSPGRGLEWLGIIYKRSKWYNQYAVSVKSRITINPDTSKNQFSLQLNSVTPEDTAVYYCARWHSDKHWGFDDWGQGTLVTVSS
VL: DIVMTQSPLSLPVTPGEPASISCRSSQSLVFRFGITYLNWYLQKPGQSPQLLIYKGSNRASGVPDRFSGSGSGTDFTLKISRVEAEDVGVYYCQQYTSYPLTFGQGTKVEIKR
B14 was tested, and the variant/HC_D62R [1] was 40 ratio and the variant/HC_D62R [2] was 23.2 ratio.

B15: 4B7 HC N32D+D62Q+Y112D/LC S32R+D33R+N35I+D97T (Fab, V domains shown)
VH: QVQLQQSGPGLVKPSQTLSLTCAISGDSVSSDSAAWSWIRQSPGRGLEWLGIIYKRSKWYNQYAVSVKSRITINPDTSKNQFSLQLNSVTPEDTAVYYCARWHSDKHWGFDDWGQGTLVTVSS
VL: DIVMTQSPLSLPVTPGEPASISCRSSQSLVFRRGITYLNWYLQKPGQSPQLLIYKGSNRASGVPDRFSGSGSGTDFTLKISRVEAEDVGVYYCQQYTSYPLTFGQGTKVEIKR
B15 showed a variant/HC_D62R [1] of 13.4 ratio and a variant/HC_D62R [2] of 17.2 ratio.

B16: 4B7 HC N32D+D62Q+Y112D/LC F31I+D33F+N35I+L42Q (Fab, V domains shown)
VH: QVQLQQSGPGLVKPSQTLSLTCAISGDSVSSDSAAWSWIRQSPGRGLEWLGIIYKRSKWYNQYAVSVKSRITINPDTSKNQFSLQLNSVTPEDTAVYYCARWHSDKHWGFDDWGQGTLVTVSS
VL: DIVMTQSPLSLPVTPGEPASISCRSSQSLVISFGITYLNWYQQKPGQSPQLLIYKGSNRASGVPDRFSGSGSGTDFTLKISRVEAEDVGVYYCQQYDSYPLTFGQGTKVEIKR
Work on B16 yielded a variant/HC_D62R [1] of 16.7 ratio and a variant/HC_D62R [2] of 21.4 ratio.

B17: 4B7 HC N32D+D62Q+Y112D/LC F31I+D33F+N35I+K44R (Fab, V domains shown)
VH: QVQLQQSGPGLVKPSQTLSLTCAISGDSVSSDSAAWSWIRQSPGRGLEWLGIIYKRSKWYNQYAVSVKSRITINPDTSKNQFSLQLNSVTPEDTAVYYCARWHSDKHWGFDDWGQGTLVTVSS
VL: DIVMTQSPLSLPVTPGEPASISCRSSQSLVISFGITYLNWYLQRPGQSPQLLIYKGSNRASGVPDRFSGSGSGTDFTLKISRVEAEDVGVYYCQQYDSYPLTFGQGTKVEIKR
B17 showed a variant/HC_D62R [1] of 18.5 ratio and a variant/HC_D62R [2] of 22.8 ratio.

B18: 4B7 HC N32D+D62Q+H107M+Y112D/LC S32R+D33R (Fab, V domains shown)
VH: QVQLQQSGPGLVKPSQTLSLTCAISGDSVSSDSAAWSWIRQSPGRGLEWLGIIYKRSKWYNQYAVSVKSRITINPDTSKNQFSLQLNSVTPEDTAVYYCARWHSDKMWGFDDWGQGTLVTVSS
VL: DIVMTQSPLSLPVTPGEPASISCRSSQSLVFRRGNTYLNWYLQKPGQSPQLLIYKGSNRASGVPDRFSGSGSGTDFTLKISRVEAEDVGVYYCQQYDSYPLTFGQGTKVEIKR
In the case of B18, the variant/HC_D62R [1] is reported as 24.7 ratio and the variant/HC_D62R [2] is reported as 24.9 ratio.
